Assay results: US7268108 (INSTITUT EUROPEAN DE BIOLOGIE CELLULAIRE, dated 2007)
[ ]: non-standard residue; d: D form. The star is where a group is joined. dPhe(4-NO2) = N[C@H](Cc1ccc([N+](=O)[O-])cc1)C(=O)O; 2Nal = N[C@@H](Cc1ccc2ccccc2c1)C(=O)O; Benzenesulfonyl = O=S(=O)(c1ccccc1)*; d2Thi = N[C@H](Cc1cccs1)C(=O)O; PyrProp = pyridinepropionyl; Nle = CCCC[C@H](N)C(=O)O

B1: alpha-MSH (Melanocyte Stimulating Hormone), Acetyl-Ser-Tyr-Ser-Met-Glu-His-Phe-Arg-Trp-Gly-Lys-Pro-Val-NH2 (peptide)
peptide: Ac-SYSMEHFRWGKPV-NH2
B2: Compound No. 9 in the Table, Ac-Nle-Ala-His-DThi-Lys-Trp-NH2 (peptide)
peptide: Ac-[Nle]AH[d2Thi]KW-NH2
SMILES: CCCC[C@H](NC(C)=O)C(=O)N[C@@H](C)C(=O)N[C@@H](Cc1c[nH]cn1)C(=O)N[C@H](Cc1cccs1)C(=O)N[C@@H](CCCCN)C(=O)N[C@@H](Cc1c[nH]c2ccccc12)C(N)=O
B3: Compound No. 10 in the Table, PyrProp-Nle-Ala-His-DpNO2Phe-Lys-Trp-NH2 (peptide)
peptide: PyrProp-[Nle]AH[dPhe(4-NO2)]KW-NH2
B4: Compound No. 12 in the Table, Ac-Nle-Ala-His-L2,Nap-Lys-Trp-NH2 (peptide)
peptide: Ac-[Nle]AH[2Nal]KW-NH2
SMILES: CCCC[C@H](NC(C)=O)C(=O)N[C@@H](C)C(=O)N[C@@H](Cc1c[nH]cn1)C(=O)N[C@@H](Cc1ccc2ccccc2c1)C(=O)N[C@@H](CCCCN)C(=O)N[C@@H](Cc1c[nH]c2ccccc12)C(N)=O
B5: Compound No. 7 in the Table, BzlSO2-Nle-Ala-His-DpNO2Phe-Lys-Trp-NH2 (peptide)
peptide: Benzenesulfonyl-[Nle]AH[dPhe(4-NO2)]KW-NH2
SMILES: CCCC[C@H](NS(=O)(=O)c1ccccc1)C(=O)N[C@@H](C)C(=O)N[C@@H](Cc1c[nH]cn1)C(=O)N[C@H](Cc1ccc([N+](=O)[O-])cc1)C(=O)N[C@@H](CCCCN)C(=O)N[C@@H](Cc1c[nH]c2ccccc12)C(N)=O
B6: Compound No. 8 in the Table, BzlSO2-Nle-Ala-His-DThi-Lys-Trp-NH2 (peptide)
peptide: Benzenesulfonyl-[Nle]AH[d2Thi]KW-NH2
SMILES: CCCC[C@H](NS(=O)(=O)c1ccccc1)C(=O)N[C@@H](C)C(=O)N[C@@H](Cc1c[nH]cn1)C(=O)N[C@H](Cc1cccs1)C(=O)N[C@@H](CCCCN)C(=O)N[C@@H](Cc1c[nH]c2ccccc12)C(N)=O

Biological target: melanocortin-1 receptor (MC-1r) on murine melanocytes (line S91 Cloudman) (murine, UniProt Q01727 1-315)
Sequence (Q01727 whole entry): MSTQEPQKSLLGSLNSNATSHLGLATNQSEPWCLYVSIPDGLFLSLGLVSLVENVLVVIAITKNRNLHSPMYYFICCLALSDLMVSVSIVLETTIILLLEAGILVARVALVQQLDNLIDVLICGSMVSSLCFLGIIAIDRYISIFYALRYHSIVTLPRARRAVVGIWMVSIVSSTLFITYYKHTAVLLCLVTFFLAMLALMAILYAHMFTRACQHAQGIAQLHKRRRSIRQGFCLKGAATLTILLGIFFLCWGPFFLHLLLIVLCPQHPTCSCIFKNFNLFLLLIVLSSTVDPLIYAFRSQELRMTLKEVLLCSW
Assay: cell-based or functional assay

| cAMP production (as % of α-MSH) | Binder |
| --- | --- |
| 100 % of α-MSH | B1 |
| 75 % of α-MSH | B2 |
| 115 % of α-MSH | B3 |
| 50 % of α-MSH | B4 |
| 100 % of α-MSH | B5 |
| 65 % of α-MSH | B6 |
